Measured values taken from patent US20260132207A1 (ACCELERON PHARMA, published 2026).

Columns and labels:
monomeric hActRIIB [1] = target: T1, monomeric hActRIIB (human, UniProt Q13705 19-134, limits assumed); assay: SPR (Biacore), 37 C, antibody captured on anti-hFc IgG chip, monomeric ActRIIB injected, KD = kd/ka
T1 construct: also called ActRIIB MONOMER; ActRIIB monomer
Experimental: (§1) Kinetic characterization of J01, K01, L01, M01, N01, and P01 antibodies binding to monomeric and dimeric hActRIIB and hActRIIA was performed using standard BIACORE®-based analysis at 37° C. In brief, antibodies were captured on anti-hFclgG Biacore chips and different concentrations of dimeric and monomeric ActRIIB or ActRIIA were injected in duplicates over the captured antibody and control surface. To obtain kinetic rate constants the data were double referenced and fit to a 1:1 interaction model using BiaEvaluation software (GE Healthcare). The equilibrium binding constant KD was determined by the ratio of binding rate constants kd/kₐ

dimeric hActRIIB [2] = target: T2, dimeric hActRIIB (human, UniProt Q13705 19-134); assay: SPR (Biacore), 37 C, antibody captured on anti-hFc IgG chip, dimeric ActRIIB injected, 1:1 model
T2 construct: also called ActRIIB DIMER; ActRIIB dimer
T2 sequence (Q13705 19-134): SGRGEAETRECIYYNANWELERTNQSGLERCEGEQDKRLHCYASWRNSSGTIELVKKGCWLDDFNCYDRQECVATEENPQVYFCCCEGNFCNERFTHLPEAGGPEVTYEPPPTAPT
Experimental: as §1

dimeric hActRIIA [3] = target: T3, dimeric hActRIIA (human, UniProt P27037 20-135); assay: SPR (Biacore), 37 C, antibody captured on anti-hFc IgG chip, dimeric ActRIIA injected
T3 construct: also called ActRIIA DIMER; ActRIIA dimer
T3 sequence (P27037 20-135): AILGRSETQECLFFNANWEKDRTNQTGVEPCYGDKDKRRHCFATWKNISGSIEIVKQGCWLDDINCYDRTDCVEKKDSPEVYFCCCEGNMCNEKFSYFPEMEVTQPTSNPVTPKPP
Experimental: as §1

dimeric hActRIIB [4] = target: T2, dimeric hActRIIB; assay: SPR (Biacore), 37 C, antibody captured on anti-hFc IgG chip, dimeric ActRIIB injected, KD = kd/ka
Experimental: as §1

monomeric hActRIIB [5] = target: T1, monomeric hActRIIB; assay: SPR (Biacore), 37 C, antibody captured on anti-hFc IgG chip, monomeric ActRIIB injected, 1:1 model
Experimental: as §1

monomeric hActRIIA [6] = target: T4, monomeric hActRIIA (human, UniProt P27037 20-135, limits assumed); assay: SPR (Biacore), 37 C, antibody captured on anti-hFc IgG chip, monomeric ActRIIA injected, 1:1 model
T4 construct: also called ActRIIA MONOMER; ActRIIA monomer
T4 sequence (P27037 20-135 limits assumed): as the sequence (P27037 20-135) above
Experimental: as §1

dimeric hActRIIA [7] = target: T3, dimeric hActRIIA; assay: SPR (Biacore), 37 C, antibody captured on anti-hFc IgG chip, dimeric ActRIIA injected, KD = kd/ka
Experimental: as §1

dimeric hActRIIA [8] = target: T3, dimeric hActRIIA; assay: SPR (Biacore), 37 C, antibody captured on anti-hFc IgG chip, dimeric ActRIIA injected, 1:1 model
Experimental: as §1

monomeric hActRIIA [9] = target: T4, monomeric hActRIIA; assay: SPR (Biacore), 37 C, antibody captured on anti-hFc IgG chip, monomeric ActRIIA injected, KD = kd/ka
Experimental: as §1

T1 sequence (Q13705 19-134 limits assumed): as the sequence (Q13705 19-134) above

| Binder | Kd (monomeric hActRIIB [1]) [nM] | koff (dimeric hActRIIB [2]) [s⁻¹] | kon (dimeric hActRIIB [2]) [M⁻¹ s⁻¹] | binding result (dimeric hActRIIA [3]) | Kd (dimeric hActRIIB [4]) [nM] | koff (monomeric hActRIIB [5]) [s⁻¹] | kon (monomeric hActRIIB [5]) [M⁻¹ s⁻¹] | koff (monomeric hActRIIA [6]) [s⁻¹] | kon (monomeric hActRIIA [6]) [M⁻¹ s⁻¹] | Kd (dimeric hActRIIA [7]) [nM] | koff (dimeric hActRIIA [8]) [s⁻¹] | kon (dimeric hActRIIA [8]) [M⁻¹ s⁻¹] | Kd (monomeric hActRIIA [9]) [nM] |
| --- | --- | --- | --- | --- | --- | --- | --- | --- | --- | --- | --- | --- | --- |
| K01 (antibody, human IgG1, kappa, V domains shown, Naive human IgG from a yeast library; It was captured on an anti-hFc IgG chip in the SPR assay; also called K01 antibody; mAB K01) VH: QLQLQESGPGLVKPSETLSLTCTVSGGSISSSSYYWGWIRQPPGKGLEWIGSISYSGSTYYNPSLKSRVTISVDTSKNQFSLKLSSVTAADTAVYYCARDSLRYGMDVWGQGTTVTVSS VL: not shown | 16 | 0.000683 | 104000 | no binding | 6.57 | 0.00237 | 148000 |  |  |  |  |  |  |
| M01 (antibody, V domains shown, Optimized human IgG; It was captured through its Fc on an anti-hFc IgG chip; also called M01 antibody; mAB M01) VH: EVQLLESGGGLVQPGGSLRLSCAASGFTFGSYGMTWVRQAPGKGLEWVSVISGSGGGTYYADSVKGRFTISRDNSKNTLYLQMNSLRAEDTAVYYCAKGPRVVGMDVWGQGTTVTVSS VL: DIQMTQSPSSVSASVGDRVTITCRASQGISSWLAWYQQKPGKAPKLLIYAASSLQSGVPSRFSGSGSGTDYTLTISSLQPEDFATYYCQQVFSYPLTFGGGTKVEIK | 0.0755 | 3.24e-05 | 304000 | no binding | 0.107 | 8.72e-05 | 1.16e+06 |  |  |  |  |  |  |
| J01 (antibody, V domains shown, also called J01 antibody; mAB J01) VH: QVQLVQSGAEVKKPGASVKVSCKASGYTFTSYRMHWVRQAPGQGLEWMGFIVPSGGSTSYAQKFQGRVTMTRDTSTSTVYMELSSLRSEDTAVYYCARVSRYAPEPMDVWGQGTTVTVSS VL: DIQMTQSPSSVSASVGDRVTITCRASQGISRWLAWYQQKPGKAPKLLIYAASSLQSGVPSRFSGSGSGTDFTLTISSLQPEDFATYYCQQAFSHPWTFGGGTKVEIK | 0.209 | 1.69e-05 | 452000 |  | 0.0374 | 0.00022 | 1.05e+06 | 0.00259 | 828000 | 0.192 | 9.31e-05 | 484000 | 3.13 |

Other lines, results leading:

| Kd (monomeric hActRIIB [1]) [nM] | koff (dimeric hActRIIB [2]) [s⁻¹] | kon (dimeric hActRIIB [2]) [M⁻¹ s⁻¹] | binding result (dimeric hActRIIA [3]) | Kd (dimeric hActRIIB [4]) [nM] | koff (monomeric hActRIIB [5]) [s⁻¹] | kon (monomeric hActRIIB [5]) [M⁻¹ s⁻¹] | koff (monomeric hActRIIA [6]) [s⁻¹] | kon (monomeric hActRIIA [6]) [M⁻¹ s⁻¹] | Kd (dimeric hActRIIA [7]) [nM] | koff (dimeric hActRIIA [8]) [s⁻¹] | kon (dimeric hActRIIA [8]) [M⁻¹ s⁻¹] | Kd (monomeric hActRIIA [9]) [nM] | Binder |
| --- | --- | --- | --- | --- | --- | --- | --- | --- | --- | --- | --- | --- | --- |
| 19.5 | 0.000365 | 212000 | no binding | 1.72 | 0.0179 | 921000 |  |  |  |  |  |  | L01 (antibody, human IgG1, kappa, V domains shown, Naive human IgG; also called L01 antibody; mAB L01) VH: QLQLQESGPGLVKPSETLSLTCTVSGGSISSSSYYWGWIRQPPGKGLEWIGSISYSGSTYYNPSLKSRVTISVDTSKNQFSLKLSSVTAADTAVYYCARDSLRYGMDVWGQGTTVTVSS VL: EIVMTQSPATLSVSPGERATLSCRASQSVSSNLAWYQQKPGQAPRLLIYGASTRATGIPARFSGSGSGTEFTLTISSLQSEDFAVYYCQVYNVWPRTFGGGTKVEIKR |
| 18.5 | 0.000335 | 182000 | no binding | 1.84 | 0.00769 | 416000 |  |  |  |  |  |  | N01 (antibody, human IgG1, kappa, V domains shown, also called N01 antibody; mAB N01) VH: QLQLQESGPGLVKPSETLSLTCTVSGGSISSSSYYWGWIRQPPGKGLEWIGSISYSGSTYYNPSLKSRVTISVDTSKNQFSLKLSSVTAADTAVYYCARDSLRYGMDVWGQGTTVTVSS VL: DIQMTQSPSTLSASVGDRVTITCRASQSIGSWLAWYQQKPGKAPKLLIYKASSLESGVPSRFSGSGSGTEFTLTISSLQPDDFATYYCQVYGSYSPRTFGGGTKVEIKR |
|  | 0.0145 | 388000 | no binding | 37.4 |  |  |  |  |  |  |  |  | P01 (antibody, V domains shown, Naive human IgG; also called P01 antibody; mAB P01) VH: EVQLLESGGGLVQPGGSLRLSCAASGFTFSSYAMSWVRQAPGKGLEWVSAISGSGGSTSYADSVKGRFTISRDNSKNTLYLQMNSLRAEDTAVYYCARLPQYSRPFDYWGQGTLVTVSS VL: DIQMTQSPSSVSASVGDRVTITCRASQGISSWLAWYQQKPGKAPKLLIYAASSLQSGVPSRFSGSGSGTDFTLTISSLQPEDFATYYCQQGHSFPLTFGGGTKVEIK |
